Molecular target: the molecule itself
Assay: crystal structure

B1: Human placental aromatase (cytochrome P450 aromatase, CYP19A1) (enzyme, UniProt P11511 1-503, looked up)
chain: MVLEMLNPIHYNITSIVPEAMPAATMPVLLLTGLFLLVWNYEGTSSIPGPGYCMGIGPLISHGRFLWMGIGSACNYYNRVYGEFMRVWISGEETLIISKSSSMFHIMKHNHYSSRFGSKLGLQCIGMHEKGIIFNNNPELWKTTRPFFMKALSGPGLVRMVTVCAESLKTHLDRLEEVTNESGYVDVLTLLRRVMLDTSNTLFLRIPLDESAIVVKIQGYFDAWQALLIKPDIFFKISWLYKKYEKSVKDLKDAIEVLIAEKRRRISTEEKLEECMDFATELILAEKRGDLTRENVNQCILEMLIAAPDTMSVSLFFMLFLIAKHPNVEEAIIKEIQTVIGERDIKIDDIQKLKVMENFIYESMRYQPVVDLVMRKALEDDVIDGYPVKKGTNIILNIGRMHRLEFFPKPNEFTLENFAKNVPYRYFQPFGFGPRGCAGKYIAMVMMKAILVTLLRRFHVKTLQGQCVESIQKIHDLSLHPDETKNMLEMIFTPRNSDRCLEH
binding result: binds
